What was measured:
[1] = target: recombinant mature human GDF-15 protein (as expressed in Baculovirus-transfected HighFive insect cells) (human) (UniProt Q99988); test: SPR (Biorad ProteOn XPR36), KD=koff/kon
[2] = target: recombinant mature human GDF-15 protein (as expressed in Baculovirus-transfected HighFive insect cells) (human) (UniProt Q99988); test: SPR (Biorad ProteOn XPR36, GLC chip), GDF-15 immobilised, antibody as analyte, 1:1 Langmuir fit, 25 C
[3] = target: recombinant mature human GDF-15 protein derived from expression in E. coli (human) (UniProt Q99988); test: SPR (Biorad ProteOn XPR36), E. coli GDF-15 immobilised, antibody as analyte

monoclonal anti-human GDF-15 mAb-B1-23 (antibody)
Kd [1]: 0.79 nM
koff [2]: 0.00043 s⁻¹
kon [2]: 540000 M⁻¹ s⁻¹
deviation of rate constants against GDF-15 derived from insect cells [3]: 45%
fold difference of affinity values against GDF-15 derived from insect cells [3]: < 2 fold

From patent publication US20230408521A1
